Key:
human serum albumin [1] = target: T1, human serum albumin (human, UniProt P02768 25-609); test: Octet biolayer interferometry, biotinylated albumin on SA sensors, pH 6.0
T1 construct: mature; Bought protein; biotinylated in the Octet and HTRF assays; also called HSA; HuSA
Outline: (§1)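 First, biotinylated albumin (1 μg/ml, 600 s) was immobilised on SA tips in PBS-T with 1% casein at pH 6.0 or 7.4. Next, serially diluted AFFIMER® polypeptide associated for 300 s, then dissociated for 600 s, at 25° C and 1000 rpm. Finally, sensors were regenerated with 10 mM glycine pH 1.5.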

cynomolgus serum albumin [2] = target: T2, cynomolgus serum albumin (cynomolgus); test: as above
T2 construct: also called CSA; cyno serum albumin
Outline: as §1

mouse serum albumin [3] = target: T3, mouse serum albumin (mouse, UniProt P07724 25-608); test: as above
T3 construct: also called MSA
Outline: as §1

human serum albumin [4] = target: T1, human serum albumin; test: binding ELISA on coated HSA, pH 7.4
Method: After saturation with 5% PBS Casein pH 7.5, plates were washed and a dilution of AFFIMER® polypeptides or controls were incubated for 90 minutes. Plates were then washed, and a biotinylated polyclonal antibody anti-cystatin A (R&D Systems) was added for 1 hour. Plates were washed and AFFIMER® polypeptides were detected using streptavidin-HRP. After a last washing step, TMB was added for the development of the experiment and the plates were read at 450 nm.

cynomolgus serum albumin [5] = target: T2, cynomolgus serum albumin; test: binding ELISA on coated albumin, pH 6.0, panel 'CSA Binding at pH 6.0'
Method: Briefly, ELISA was performed as follow:
(§2) Human (Sigma-Aldrich); Cynomolgus and Mouse (Abcam); Equine (Abcam); Canine (Abcam); Mouse (Sigma-Aldrich); Rabbit (Sigma-Aldrich); Porcine (Sigma-Aldrich);, and Rat (Sigma-Aldrich) serum albumin were coated overnight on 96 well plates (Corning Costar) at 1 μg/ml in PBS at the appropriate pH (pH 6.0 or 7.4). Plates were saturated using 5% Casein (Sigma-Aldrich) buffer in PBS. […] Plates were then washed and AFFIMER® proteins were detected using a biotinylated polyclonal antibody anti-Cystatin (R&D System) for 90 minutes. After washing, streptavidin-HRP (Thermo Fisher Scientific) was added and incubated for 30 minutes.

porcine serum albumin = porcine serum albumin (porcine, UniProt P08835 25-607); test: binding ELISA, coated albumin, pH 7.4
equine serum albumin = equine serum albumin (equine, UniProt P35747 25-607); test: binding ELISA, coated albumin, pH 7.4
canine serum albumin [6] = target: T4, canine serum albumin (canine, UniProt P49822 25-608); test: binding ELISA, coated albumin, pH 7.4
human serum albumin [7] = target: T1, human serum albumin; test: binding ELISA, coated albumin, pH 7.4
rat serum albumin = rat serum albumin (rat, UniProt P02770 25-608); test: binding ELISA, coated albumin, pH 7.4
cynomolgus serum albumin [8] = target: T2, cynomolgus serum albumin; test: binding ELISA, coated albumin, pH 7.4
mouse serum albumin [9] = target: T3, mouse serum albumin; test: binding ELISA, coated albumin, pH 7.4
rabbit serum albumin = rabbit serum albumin (rabbit, UniProt P49065 25-608); test: binding ELISA, coated albumin, pH 7.4
human serum albumin [10] = target: T1, human serum albumin; test: SPR (Biacore T200), albumin amine-coupled to CM5, Affimer analyte, pH 7.4
Method: (§3) Affinities for mouse, human, and cynomolgus serum were also measured at pH 7.4 for four (4) AFFIMER® binders using surface plasmon resonance (SPR) (FIG. 5, Table 5). […] A concentration titration of AFFIMER® monomers was run as analyte at a flow rate of 30 μl/min or 60 μl/min. Fc2-1, Fc3-1 and Fc4-1 kinetic data was blank subtracted and fit to a 1:1 Langmuir binding model (BIAcore Evalution software; GE) to calculate KD values.

cynomolgus serum albumin [11] = target: T2, cynomolgus serum albumin; test: as above
Method: as §3

mouse serum albumin [12] = target: T3, mouse serum albumin; test: as above
Method: as §3

canine serum albumin [13] = target: T4, canine serum albumin; test: binding ELISA on coated albumin, pH 6.0, panel 'Canine SA Binding at pH 6.0'
mouse serum albumin [14] = target: T3, mouse serum albumin; test: binding ELISA on coated MSA, pH 6.0
Method: as §2
Briefly, PD-1 was coated overnight on the plate at 1 μg/ml in carbonate buffer. Then plates were saturated using 5% Casein/PBS buffer. […] After saturation, the mix was added to the plates and incubated for 90 minutes. Plates were then washed and the detection polyclonal antibody, biotinylated anti-PD-L1, was added. After washing the plates, streptavidin-HRP was added for 30 minutes. After a final wash, development of the reaction was performed using TMB (Pierce) and the plates were read using a plate reader at 450 nm (FIG. 26C).

human serum albumin [15] = target: T1, human serum albumin; test: Biacore, immobilised HSA, pH 7.4
Method: as §3
The AFFIMER® polypeptides were produced and purified from E. coli as described in Example 3.

T3 sequence (P07724 25-608 limits assumed): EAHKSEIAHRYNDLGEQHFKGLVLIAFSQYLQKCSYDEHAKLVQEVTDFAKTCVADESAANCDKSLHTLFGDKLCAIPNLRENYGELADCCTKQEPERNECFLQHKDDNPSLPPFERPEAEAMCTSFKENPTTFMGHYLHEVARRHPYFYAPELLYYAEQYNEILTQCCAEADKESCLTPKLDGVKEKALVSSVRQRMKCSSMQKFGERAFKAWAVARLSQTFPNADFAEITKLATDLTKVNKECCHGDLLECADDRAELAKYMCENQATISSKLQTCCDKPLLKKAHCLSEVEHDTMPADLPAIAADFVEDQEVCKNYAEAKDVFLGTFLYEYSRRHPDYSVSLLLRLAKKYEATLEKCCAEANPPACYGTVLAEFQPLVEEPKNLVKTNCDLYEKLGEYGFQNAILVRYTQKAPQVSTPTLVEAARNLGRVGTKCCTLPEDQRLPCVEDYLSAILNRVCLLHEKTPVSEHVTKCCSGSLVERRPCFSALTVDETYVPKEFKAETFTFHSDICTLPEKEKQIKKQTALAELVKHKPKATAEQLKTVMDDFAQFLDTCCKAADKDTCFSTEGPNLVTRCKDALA
T2 sequence (A2V9Z4 25-608): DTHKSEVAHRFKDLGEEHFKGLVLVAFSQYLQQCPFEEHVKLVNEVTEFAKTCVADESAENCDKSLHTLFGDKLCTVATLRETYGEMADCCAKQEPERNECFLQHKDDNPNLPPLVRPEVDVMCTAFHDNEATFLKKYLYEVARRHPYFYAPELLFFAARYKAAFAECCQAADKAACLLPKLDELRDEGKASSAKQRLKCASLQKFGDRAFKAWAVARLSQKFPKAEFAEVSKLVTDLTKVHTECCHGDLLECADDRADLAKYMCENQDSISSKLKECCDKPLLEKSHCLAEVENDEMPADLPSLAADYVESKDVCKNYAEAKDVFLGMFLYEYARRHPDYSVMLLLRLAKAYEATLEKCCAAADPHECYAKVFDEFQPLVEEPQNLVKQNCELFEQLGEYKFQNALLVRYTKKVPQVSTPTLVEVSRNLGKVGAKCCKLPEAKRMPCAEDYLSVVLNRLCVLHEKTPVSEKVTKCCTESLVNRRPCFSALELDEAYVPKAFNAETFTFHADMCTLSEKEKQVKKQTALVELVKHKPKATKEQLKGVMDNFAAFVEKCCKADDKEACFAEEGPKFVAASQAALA
T4 sequence (P49822 25-608 limits assumed): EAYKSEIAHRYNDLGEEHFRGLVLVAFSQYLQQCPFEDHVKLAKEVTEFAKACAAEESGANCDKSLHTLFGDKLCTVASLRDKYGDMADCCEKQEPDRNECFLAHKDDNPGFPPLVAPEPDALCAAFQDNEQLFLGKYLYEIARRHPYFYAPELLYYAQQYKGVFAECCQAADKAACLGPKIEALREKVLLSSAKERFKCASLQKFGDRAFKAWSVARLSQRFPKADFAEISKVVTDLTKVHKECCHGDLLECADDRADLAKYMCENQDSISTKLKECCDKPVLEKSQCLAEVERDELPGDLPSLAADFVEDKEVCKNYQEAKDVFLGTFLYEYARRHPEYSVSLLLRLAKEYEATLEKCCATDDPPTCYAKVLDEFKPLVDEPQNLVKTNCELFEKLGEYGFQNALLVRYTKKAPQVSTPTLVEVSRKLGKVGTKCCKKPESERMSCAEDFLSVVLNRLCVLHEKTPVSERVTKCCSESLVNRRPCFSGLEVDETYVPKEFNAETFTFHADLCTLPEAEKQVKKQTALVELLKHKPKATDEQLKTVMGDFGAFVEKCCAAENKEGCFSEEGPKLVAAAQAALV
rat serum albumin, sequence (P02770 25-608 limits assumed): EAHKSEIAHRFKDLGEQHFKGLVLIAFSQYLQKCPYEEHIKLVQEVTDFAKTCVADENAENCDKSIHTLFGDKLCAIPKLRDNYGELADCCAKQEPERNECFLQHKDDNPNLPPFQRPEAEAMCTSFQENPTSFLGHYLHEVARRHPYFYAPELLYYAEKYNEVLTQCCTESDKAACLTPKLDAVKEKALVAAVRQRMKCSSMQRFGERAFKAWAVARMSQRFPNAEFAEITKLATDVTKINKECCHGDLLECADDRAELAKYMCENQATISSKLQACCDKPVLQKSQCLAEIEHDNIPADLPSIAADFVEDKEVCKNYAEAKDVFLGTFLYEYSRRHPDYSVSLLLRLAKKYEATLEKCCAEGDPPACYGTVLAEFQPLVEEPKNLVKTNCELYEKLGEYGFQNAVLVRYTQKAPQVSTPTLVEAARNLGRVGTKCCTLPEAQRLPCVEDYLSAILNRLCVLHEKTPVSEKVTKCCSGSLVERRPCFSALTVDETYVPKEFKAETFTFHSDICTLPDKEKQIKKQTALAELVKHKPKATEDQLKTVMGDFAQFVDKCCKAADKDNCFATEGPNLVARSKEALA
porcine serum albumin, sequence (P08835 25-607 limits assumed): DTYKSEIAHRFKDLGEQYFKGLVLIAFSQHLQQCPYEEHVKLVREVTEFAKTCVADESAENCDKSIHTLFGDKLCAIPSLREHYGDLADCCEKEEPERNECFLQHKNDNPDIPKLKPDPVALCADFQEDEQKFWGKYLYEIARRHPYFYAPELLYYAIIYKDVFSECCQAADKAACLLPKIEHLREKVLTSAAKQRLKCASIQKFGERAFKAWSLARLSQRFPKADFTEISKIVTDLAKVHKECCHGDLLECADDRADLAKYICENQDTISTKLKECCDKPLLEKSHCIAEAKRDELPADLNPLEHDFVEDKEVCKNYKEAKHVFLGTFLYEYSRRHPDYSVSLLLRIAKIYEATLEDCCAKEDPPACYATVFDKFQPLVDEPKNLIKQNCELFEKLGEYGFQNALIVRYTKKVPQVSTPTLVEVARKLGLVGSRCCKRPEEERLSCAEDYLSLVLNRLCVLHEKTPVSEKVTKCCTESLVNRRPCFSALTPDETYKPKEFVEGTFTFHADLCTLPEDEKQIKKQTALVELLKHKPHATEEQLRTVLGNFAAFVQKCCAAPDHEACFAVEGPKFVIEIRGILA
equine serum albumin, sequence (P35747 25-607 limits assumed): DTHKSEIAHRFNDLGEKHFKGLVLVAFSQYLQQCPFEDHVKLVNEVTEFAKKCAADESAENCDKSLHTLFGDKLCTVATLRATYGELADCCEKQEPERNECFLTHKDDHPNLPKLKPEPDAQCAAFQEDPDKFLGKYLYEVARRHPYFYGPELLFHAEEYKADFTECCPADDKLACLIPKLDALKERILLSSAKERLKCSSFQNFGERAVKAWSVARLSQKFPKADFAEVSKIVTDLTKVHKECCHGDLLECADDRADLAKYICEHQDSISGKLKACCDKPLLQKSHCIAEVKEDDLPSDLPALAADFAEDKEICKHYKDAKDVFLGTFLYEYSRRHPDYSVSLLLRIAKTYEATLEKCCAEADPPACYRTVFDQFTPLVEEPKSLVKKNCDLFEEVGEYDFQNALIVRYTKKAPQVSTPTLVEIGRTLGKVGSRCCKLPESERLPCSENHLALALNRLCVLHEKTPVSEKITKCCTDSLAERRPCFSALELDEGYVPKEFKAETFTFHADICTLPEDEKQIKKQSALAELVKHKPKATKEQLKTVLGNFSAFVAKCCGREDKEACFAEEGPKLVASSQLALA
rabbit serum albumin, sequence (P49065 25-608 limits assumed): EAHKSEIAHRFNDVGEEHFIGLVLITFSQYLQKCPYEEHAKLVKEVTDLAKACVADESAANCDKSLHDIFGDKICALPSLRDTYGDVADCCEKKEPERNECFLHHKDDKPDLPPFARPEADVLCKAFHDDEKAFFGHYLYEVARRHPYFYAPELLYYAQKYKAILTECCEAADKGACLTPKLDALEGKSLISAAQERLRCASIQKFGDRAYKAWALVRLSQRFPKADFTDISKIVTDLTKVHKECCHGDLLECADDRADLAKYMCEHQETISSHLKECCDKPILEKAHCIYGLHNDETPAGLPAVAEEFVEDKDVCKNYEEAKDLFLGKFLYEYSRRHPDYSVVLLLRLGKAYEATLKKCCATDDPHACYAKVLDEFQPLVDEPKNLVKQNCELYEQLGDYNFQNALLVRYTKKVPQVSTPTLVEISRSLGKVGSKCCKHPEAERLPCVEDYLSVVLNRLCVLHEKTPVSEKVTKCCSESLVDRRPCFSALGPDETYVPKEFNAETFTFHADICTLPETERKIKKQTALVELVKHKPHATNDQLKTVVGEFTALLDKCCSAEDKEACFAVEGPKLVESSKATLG

koff (human serum albumin [1]): 0.00198 s⁻¹
kon (human serum albumin [1]): 278000 M⁻¹ s⁻¹
koff (cynomolgus serum albumin [2]): 0.00717 s⁻¹
kon (cynomolgus serum albumin [2]): 68100 M⁻¹ s⁻¹
koff (mouse serum albumin [3]): 0.0447 s⁻¹
kon (mouse serum albumin [3]): 470000 M⁻¹ s⁻¹
EC50 (human serum albumin [4]): 0.04 nM
EC50 (read off the curve) (cynomolgus serum albumin [5]): ~3 nM
EC50 (porcine serum albumin): 51.7 nM
EC50 (equine serum albumin): 150 nM
EC50 (canine serum albumin [6]): 21.5 nM
EC50 (human serum albumin [7]): 0.05 nM
EC50 (rat serum albumin): 4.18 nM
EC50 (cynomolgus serum albumin [8]): 12.8 nM
EC50 (mouse serum albumin [9]): 42.5 nM
EC50 (rabbit serum albumin): 381 nM
Kd (human serum albumin [10]): 2.59 nM
koff (human serum albumin [10]): 0.0037 s⁻¹
kon (human serum albumin [10]): 1.43e+06 M⁻¹ s⁻¹
Kd (cynomolgus serum albumin [11]): 112 nM
koff (cynomolgus serum albumin [11]): 0.0546 s⁻¹
kon (cynomolgus serum albumin [11]): 488000 M⁻¹ s⁻¹
Kd (mouse serum albumin [12]): 67.8 nM
koff (mouse serum albumin [12]): 0.139 s⁻¹
kon (mouse serum albumin [12]): 2.04e+06 M⁻¹ s⁻¹
EC50 (read off the curve) (canine serum albumin [13]): ~2 nM
EC50 (read off the curve) (mouse serum albumin [14]): ~0.7 nM
Kd (human serum albumin [15]): 2.84 nM
koff (human serum albumin [15]): 0.00347 s⁻¹
kon (human serum albumin [15]): 1.22e+06 M⁻¹ s⁻¹
B1: HSA-41 (designed binder)
chain: MIPRGLSEAKPATPEIQEIVDKVKPQLEEKTNETYGKLEAVQYKTQVLANFFQRRWPGSTNYYIKVRAGDNKYMHLKVFNGPWKFRNTDRGADRVLTGYQVDKNKDDELTGFHHHHHH
notes: also called HSA-41 parent; HSA-41 AH parent
